Results: article PMC10251477 (2023)
Changes are numbered by the printed parent chain. Numbers in names are those of the source. Bridge positions count the residues as written; N and C are the ends. Square brackets hold non-standard residues; d marks the D form. Primed or numbered codes have the meaning given here. Ends that are not written are not given here. 5/6FAM = 5/6-carboxyfluorescein; S5 = C=CCCC[C@](C)(N)C(=O)O; PEG3′ = not defined here

Assays:
[1] = biological target: T1, MBP-tagged RocCOR LRRK2 (wild type); assay: FP
T1 chain: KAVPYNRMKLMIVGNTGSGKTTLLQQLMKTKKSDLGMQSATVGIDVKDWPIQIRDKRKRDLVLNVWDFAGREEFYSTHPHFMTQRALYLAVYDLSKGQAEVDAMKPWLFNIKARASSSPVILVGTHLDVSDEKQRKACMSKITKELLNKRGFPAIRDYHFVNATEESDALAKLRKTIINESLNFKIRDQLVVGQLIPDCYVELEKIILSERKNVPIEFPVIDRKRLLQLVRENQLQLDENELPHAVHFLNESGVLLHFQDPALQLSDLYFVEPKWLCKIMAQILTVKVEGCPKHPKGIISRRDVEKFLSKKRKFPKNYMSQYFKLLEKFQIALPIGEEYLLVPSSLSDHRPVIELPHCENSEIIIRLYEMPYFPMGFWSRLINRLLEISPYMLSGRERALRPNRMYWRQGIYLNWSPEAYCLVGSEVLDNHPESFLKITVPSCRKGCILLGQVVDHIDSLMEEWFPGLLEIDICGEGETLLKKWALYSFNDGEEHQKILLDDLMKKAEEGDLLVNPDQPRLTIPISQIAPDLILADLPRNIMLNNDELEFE

[2] = biological target: T2, MBP-tagged R1441C RocCOR LRRK2; assay: FP
T2 chain: T1 chain with R114C

{FAM-PEG3′}-KGEGE[S5]LLK[S5]WALYSFNDGEKH[S5]KKL[S5]KL (staple 6-10, 23-27) [FAM ECOR (doubly stapled Elongated COR peptide)]
Kd [1]: 45 nM | Kd [2]: 24 nM

{5/6FAM-PEG3′}-KGEGE[S5]LLK[S5]WGLYSFNDGEKH[S5]KKL[S5]KL (staple 6-10, 23-27) [FAM ECOR A12G (doubly stapled Elongated COR peptide with A12G)]
Kd [1]: 57 nM | Kd [2]: 32 nM
